Data set [1] concerns the target NF-IL6 TCD WT (tryptic core domain, aa 266-345) (UniProt P17676). As to the kind of experiment: EMSA. The settings on record: CITED Brasier and Kumar 1994; cited from earlier work. Background: A gel shift assay detects complexes by their altered migration in electrophoresis.
Data set [2] concerns NF-IL6 full length (24-345). As to the kind of experiment: EMSA. As to conditions: CITED Brasier and Kumar 1994; indistinguishable from TCD WT; cited from earlier work.
For another data set, the target named is NF-IL6 TCD S271A (UniProt P17676 SEQ:2-81, S271A). As to the kind of experiment: EMSA; binding specificity indistinguishable from the other TCD peptides. As to conditions: tags: untagged, initiator Met removed; chain copies: 2 inferred; label: 32P fill-in; BamHI/BglII overhangs.
The next data set deals with NF-IL6 TCD V267A (UniProt P17676 SEQ:2-81, V267A). The data set is described as above. As to conditions: tags: untagged, initiator Met removed; chain copies: 2 inferred; label: 32P fill-in; BamHI/BglII overhangs.
Sequence of NF-IL6 TCD V267A (P17676 other isoform, or with tags, fused parts or gaps V267A | V267A V267A): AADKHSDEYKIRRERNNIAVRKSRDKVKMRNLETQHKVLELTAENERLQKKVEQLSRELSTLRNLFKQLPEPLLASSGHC

Sequence of NF-IL6 TCD S271A (P17676 other isoform, or with tags, fused parts or gaps S271A | S271A S271A): as the sequence (P17676 other isoform, or with tags, fused parts or gaps V267A | V267A V267A) above, with A2V, S6A counted along it
Sequence of NF-IL6 TCD WT (tryptic core domain, aa 266-345) (P17676 other isoform, or with tags, fused parts or gaps): as the sequence (P17676 other isoform, or with tags, fused parts or gaps V267A | V267A V267A) above, with A2V counted along it

For orientation: Kd means the constant that tells how readily two partners part at equilibrium. Turning to APRE DNA (site used in cited work), the Kd in data set [1] and in data set [2] was 36 nM in each case.

B1: APRE M6 (32P) (dsDNA)
DNA 1: GATCCACCACAGTTGTGATTTCACAACCTGACCA
DNA 2: TGGTCAGGTTGTGAAATCACAACTGTGGTGGATC
Turning to B1, the binding result in the data set with NF-IL6 TCD S271A and in the data set with NF-IL6 TCD V267A was “binds” each time.
